In publication PMC4587294 (Nanomedicine, 2015):
Values joined by “and” are separate entries in the source; they are usually repeats but may differ in a detail not shown here. Identical values can stand only once.

Legend:
AUC = target: the molecule itself; experiment: AUC
STEM mass measurement = target: the molecule itself; experiment: STEM mass measurement

B1: T2i88-8-pf self-assembling protein nanoparticle (SAPN) chain (designed binder)
chain: MGHHHHHHASWKWDGGLVPRGSWQTWNAKWDQWSNDWNAWRSDWQAWKDDWAYWTLTWKYGELYSKLAELERRLEELAKFVAAWTLKAAAVDLELAALRRRLEELARGGSGANANPNANPNANPNANP
**Q.** Which “stoichiometry N” value (AUC) does the source give for B1 here?
**A.** ~180 chains per nanoparticle

**Q.** What about the “stoichiometry N” value (STEM mass measurement) of the same protein?
**A.** 195 peptide chains per nanoparticle and ~180 peptide chains per particle
